Experimental data as given in US20220177587A1, “METHODS AND USES OF VARIANT CD80 FUSION PROTEINS AND RELATED CONSTRUCTS” (Alpine Immune Sciences, Inc., priority 2018, published 2022).

Columns and labels:
CD28 [1] = target: T1, CD28 (Homo sapiens, UniProt P10747); assay: Flow binding to Jurkat/IL2 reporter cells (CD28); parameters: host or cells: Jurkat cells expressing an IL-2-luciferase reporter
Method: Binding of selected immunomodulatory fusion proteins to cognate binding partners was assessed. […] Cells were sorted in a Bio-Rad S3 Cell Sorter (Bio-Rad Corp., USA) to >98% purity. Jurkat/IL2 reporter cells, which endogenously express CD28, were used to detect binding to CD28.
For staining and analysis by flow cytometry, 100,000 cells of appropriate transfected cells were plated in 96-well round bottom plates. Cells were spun down and resuspended in staining buffer (phosphate buffered saline (PBS), 1% bovine serum albumin (BSA), and 0.1% sodium azide) for 20 minutes to block non-specific binding. […] Primary staining was performed on ice for 45 minutes, before washing cells in staining buffer twice. Phycoerythrin (PE)-conjugated anti-human Fc (Jackson ImmunoResearch, USA) was diluted 1:150, added to cells and incubated another 30 minutes on ice. Cells were then washed twice with 150 μL/well stain buffer, fixed in 2% formaldehyde/PBS, and analyzed on Intellicyt flow cytometer (Intellicyt Corp., USA). PE Mean Fluorescence Intensity (MFI) was calculated for each cell type with FlowJo Version 10 software (FlowJo LLC, USA).
Binding assays were carried out to assess the specificity and affinity of multivalent proteins to cell-expressed CTLA-4, CD28, and PD-L1 counter structures.
The EC50 for binding also was determined.

CD28 [2] = target: T1, CD28; assay: Jurkat/IL2 + CHO/OKT3 +/- PD-L1 reporter assay: PD-L1-dependent CD28 costimulation; type: cell-based; parameters: host or cells: Jurkat cells expressing an IL-2-luciferase reporter; conditions: Table E12; Jurkat/IL2 + CHO/OKT3/PD-L1; 5.0 nM
Method in brief: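 Jurkat reporter cells (100,000/well) preincubated 15 min at room temperature with test protein, then cocultured 5 h at 37 °C with CHO aAPCs bearing anti-CD3 scFv (OKT3) with or without PD-L1. Luciferase luminescence (RLU) read after lysis-substrate addition.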

huCTLA4 = huCTLA4 (Homo sapiens, UniProt P16410); assay: Flow binding to CHO cells stably expressing CTLA4; parameters: huCTLA4 and huPD-L1, full-length mammalian surface expression constructs were generated; expressed in transfected cells; host or cells: CHO cells, lentiviral transduction, sorted to >98% purity; conditions: for CTLA4 MFI at 33.3 nM: CHO cells stably expressing CTLA4
Method in brief: (§1)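 Fusion proteins bound to CHO cells stably expressing CTLA4 or PD-L1, or to Jurkat/IL2 reporter cells with endogenous CD28, for 45 min on ice after blocking in PBS/1% BSA. Detection with PE anti-human Fc by flow cytometry; PE MFI per cell type and binding EC50 determined.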

huPD-L1 = huPD-L1 (Homo sapiens, UniProt Q9NZQ7); assay: Flow binding to CHO cells stably expressing PD-L1; parameters: huCTLA4 and huPD-L1, full-length mammalian surface expression constructs were generated; expressed in transfected cells; host or cells: CHO cells, lentiviral transduction, sorted to >98% purity; conditions: for PD-L1 MFI at 33.3 nM: CHO cells stably expressing PD-L1
Method in brief: as §1

[3] = Table E10, 33.3 nM, Jurkats (CD28)
[4] = Table E20, Jurkats (CD28), 33.3 nM
[5] = Table E23, MFI at 33.3 nM relative to CD80 WT IgV-Fc
[6] = Table E23, CD80 IgV-Fc (inert) at 33.3 nM

Chain of huCTLA4 (P16410 36-223): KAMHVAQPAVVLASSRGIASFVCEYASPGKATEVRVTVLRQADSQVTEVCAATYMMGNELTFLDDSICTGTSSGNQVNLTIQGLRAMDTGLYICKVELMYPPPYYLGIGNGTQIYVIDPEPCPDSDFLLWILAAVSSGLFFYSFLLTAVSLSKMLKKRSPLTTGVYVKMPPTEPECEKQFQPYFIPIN
Chain of huPD-L1 (Q9NZQ7 19-290): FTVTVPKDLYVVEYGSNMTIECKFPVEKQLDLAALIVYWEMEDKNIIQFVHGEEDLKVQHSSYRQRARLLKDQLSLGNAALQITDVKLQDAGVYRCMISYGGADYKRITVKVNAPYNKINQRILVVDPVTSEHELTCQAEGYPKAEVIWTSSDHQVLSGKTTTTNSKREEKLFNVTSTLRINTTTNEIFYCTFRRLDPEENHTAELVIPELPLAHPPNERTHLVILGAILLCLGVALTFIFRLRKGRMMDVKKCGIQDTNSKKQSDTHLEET

Row | Molecule | CD28 MFI at 33.3 nM (CD28 [1]; [3]) | Relative Luciferase Units (RLU), CD80 Cone 5.0 nM (CD28 [2]) [RLU] | CTLA4 MFI at 33.3 nM (huCTLA4; Table E10, 33.3 nM) | CD28 MFI at 33.3 nM (CD28 [1]; [4]) | CTLA4 MFI at 33.3 nM (huCTLA4; Table E20, 33.3 nM) | PD-L1 MFI at 33.3 nM (huPD-L1; Table E20, 33.3 nM) | also measured
1 | E35D/M47V/T62S/L85Q (protein) VIHVTKEVKEVATLSCGHNVSVEELAQTRIYWQKDKKMVLTMMSGDVNIWPEYKNRTIFDISNNLSIVILALRPSDEGTYECVVQKYEKDAFKREHLAEVTLSVKAD | 99.4 | 1402 | 31230 | – | – | – | –
2 | H18Y/A26E/M47L/D90G (protein) VIHVTKEVKEVATLSCGYNVSVEELEQTRIYWQKEKKMVLTMMSGDLNIWPEYKNRTIFDITNNLSIVILALRPSDEGTYECVVLKYEKGAFKREHLAEVTLSVKAD | – | – | – | 2858 | 23485 | 8933 | –
3 | H18Y/A26P/E35D/M471/V68M/A71G (protein) VIHVTKEVKEVATLSCGYNVSVEELPQTRIYWQKDKKMVLTMMSGDINIWPEYKNRTIFDITNNLSIMILGLRPSDEGTYECVVLKYEKDAFKREHLAEVTLSVKAD | – | – | – | – | – | – | CD28 MFI at 33.3 nM (CD28 [1]; Table E23, CD80 IgV-Fc (inert) at 33.3 nM, Jurkat (CD28)): 5125; CD28 Fold change to WT CD80 (CD28 [1]; [5]): 50.2; CTLA4 MFI at 33.3 nM (huCTLA4; [6]): 12156; CTLA4 Fold change to WT CD80 (huCTLA4; [5]): 8.8; PD-L1 MFI at 33.3 nM (huPD-L1; [6]): 54482; PD-L1 Fold change to WT CD80 (huPD-L1; [5]): 330.2; Ratio of PDL1:CD28 (huPD-L1; Table E23, ratio of MFI at 33.3 nM): 10.6
4 | E35D/M47V/I61V/L85M (protein) VIHVTKEVKEVATLSCGHNVSVEELAQTRIYWQKDKKMVLTMMSGDVNIWPEYKNRTIFDVTNNLSIVILALRPSDEGTYECVVMKYEKDAFKREHLAEVTLSVKAD | 274 | 1176 | 28848 | – | – | – | –
5 | A26E/M47L/V68M/A71G (protein) VIHVTKEVKEVATLSCGHNVSVEELEQTRIYWQKEKKMVLTMMSGDLNIWPEYKNRTIFDITNNLSIMILGLRPSDEGTYECVVLKYEKDAFKREHLAEVTLSVKAD | – | – | – | 98.7 | 3227 | 1667 | –
6 | E35D/M47V/L85M/R94Q (protein) VIHVTKEVKEVATLSCGHNVSVEELAQTRIYWQKDKKMVLTMMSGDVNIWPEYKNRTIFDITNNLSIVILALRPSDEGTYECVVMKYEKDAFKQEHLAEVTLSVKAD | 23.7 | 466 | 23334 | – | – | – | –
7 | H18Y/A26E/E35D/V68M (protein) VIHVTKEVKEVATLSCGYNVSVEELEQTRIYWQKDKKMVLTMMSGDMNIWPEYKNRTIFDITNNLSIMILALRPSDEGTYECVVLKYEKDAFKREHLAEVTLSVKAD | – | – | – | 372 | 20929 | 17904 | –
